The source of these data is US20210171654A1.

The target of assay [1] is Human SIRPa-His fusion protein (extracellular domain of human SIRPa fused to His-tag) (human) (UniProt P78324). Kind of assay: SPR, Biacore 3000 at 25 C, antibody captured by goat anti-human antibody, SIRPa-His as analyte. (In general: Surface plasmon resonance follows binding to a sensor surface in real time, without labels.)
Assay [2] shares this target. Nature of the assay: Biacore (surface plasmon resonance), antibody captured, monomeric human SIRPa-His as analyte.

B1: Humanized 1H9 (antibody, human IgG1, kappa, N297A, V domains shown)
VH: QVQLVQSGAEVKKPGASVKVSCKASGYTFTSYWITWVKQAPGQGLEWIGDIYPGSGSTNHIEKFKSKATLTVDTSISTAYMELSRLRSDDTAVYYCATGYGSSYGYFDYWGQGTLVTVSS
VL: DIQMTQSPSSLSASVGDRVTITCRASENIYSYLAWYQQKPGKAPKLLIYTAKTLAEGVPSRFSGSGSGTDFTLTISSLQPEDFATYYCQHQYGPPFTFGQGTKLEIKR
On to B1, for which the Kd in assay [1] was 1.15 nM. That is a single-digit nanomolar value.

B2: Humanized 3C2 (antibody, human IgG1, kappa, N297A, V domains shown)
VH: QVQLVQSGAEVKKPGASVKVSCKASGYTFTSYWMHWVRQAPGQGLEWMGNIDPSDSDTHYNQKFKDRVTMTRDTSTSTVYMELSSLRSEDTAVYYCARGYSKYYAMDYWGQGTLVTVSS
VL: DIVMTQTPLSLSVTPGQPASISCRSSQSIVHSYGNTYLEWYLQKPGQSPQLLIYKVSNRFSGVPDRFSGSGSGTDFTLKISRVEAEDVGVYYCFQGSHVPYTFGQGTKLEIKR
In assay [1], B2 registered a Kd of 5.53 nM.

B3: 1H9 (parental mouse anti-human SIRPa monoclonal antibody) (antibody, V domains shown)
VH: QVQLQQPGAERVKPGASVKMSCKASGYTFTSYWITWVKQRPGQGLEWIGDIYPGSGSTNHIEKFKSKATLTVDTSSNTAYMQLSRLTSEDSAVYYCATGYGSSYGYFDYWGQGTTLTVSS
VL: DIQMTQSPASLSASVGETVTITCRASENIYSYLAWYQQKQGKSPQLLVYTAKTLAEGVPSRFSGSGSGTQFSLKINSLQPEDFGNYYCQHQYGPPFTFGSGTRLVIK
In assay [2], B3 displayed a Kd of 2.06 nM. In other words, the single-digit nanomolar range.

B4: 3C2 (parental mouse anti-human SIRPa monoclonal antibody) (antibody, V domains shown)
VH: QVQLQQPGAELVRPGSSVKLSCKASGYTFTSYWMHWVKQRPIQGLEWIGNIDPSDSDTHYNQKFKDKATLTVDKSSSTAYMQLSSLTSEDSAVYYCARGYSKYYAMDYWGQGTSVTVSS
VL: DVLMTQTPLSLSVSLGDQASISCRSSQSIVHSYGNTYLEWYLQKPGQSPKLLIYKVSNRFSGVPDRFSGSGSGTDFTLKISRVEAEDLGVYYCFQGSHVPYTFGGGTKLEIK
Molecule B4 showed a Kd in assay [2] of 5.58 nM.

Usually Kd stands for the constant that tells how readily two partners part at equilibrium.
